Test results from PMC11196586, “Molecular insight into interactions between the Taf14, Yng1 and Sas3 subunits of the NuA3 complex” (Nature Communications, 2024).

Experiments:
Taf14ET-601 DNA complex = experiment: EMSA of 601 Widom DNA with Taf14ET with or without peptide; assay type: biochemical, Saccharomyces cerevisiae; settings: protein preincubated with peptide at 1:2.5 molar ratio; 8% native polyacrylamide gel
Experimental: (§1) EMSAs were performed by mixing increasing amounts of Taf14 proteins with 0.25 pmol/lane of 601 DNA in 25 mM Tris-HCl pH 7.5, 25-100 mM NaCl, 0.2 mM ethylenediaminetetraacetic acid (EDTA), 10% glycerol and 1 mM DTT in 10 µL reaction volume. The Taf14 proteins were either preincubated with Yng1EBM at a 1:2.5 molar ratio or with Yng1EBM and Sas3EBM at a 1:1:1 molar ratio for a minimum of 1 h on ice or used without peptides prior to addition of DNA. Reaction mixtures were incubated at 4 °C for 10 min (2-2.5 µl of loading dye was added to each sample) and loaded onto an 8% native polyacrylamide gel. Electrophoresis was performed in 0.5x Tris-borate-EDTA (TBE) at 80–120 V on ice. The gels were stained with SYBR Gold (Thermo Fisher Sci) and visualized by Blue LED (UltraThin LED Illuminator-GelCompany).

Taf14FL-601 DNA complex = experiment: EMSA of 601 Widom DNA with Taf14FL with or without peptide; assay type: biochemical, Saccharomyces cerevisiae; settings: protein preincubated with peptide at 1:2.5 molar ratio; 8% native polyacrylamide gel
Experimental: as §1

Taf14YEATS = experiment: NMR 1H,15N HSQC titration, Taf14YEATS; assay type: binding, Saccharomyces cerevisiae; settings: 298 K
Experimental: (§2) Nuclear magnetic resonance experiments were performed at 298 K on Varian INOVA 900 MHz (for Taf14FL) and 600 MHz (for Taf14ET and Taf14YEATS) spectrometers equipped with cryogenic probes as described. The NMR samples contained 0.05–0.2 mM uniformly ^15N-labeled Taf14 proteins in 50 mM Tris-HCl (pH 6.8–7.5), 150 mM NaCl, 0–5 mM DTT or 1x PBS (pH 6.6–7.5), supplemented with up to an additional 100 mM NaCl, 0–5 mM DTT or 0.2 mM TCEP and 8-10% D2O. Binding was characterized by monitoring chemical shift changes in ^1H,^15N HSQC spectra of the proteins induced by the addition of wild type or mutated Yng1EBM (aa 113-124), Sas3EBM (aa 111-122) and Yng1EBM-PHD (aa 100-219). NMR data were processed and analyzed using NMRPipe as previously described, with the apparent Kds being determined by a nonlinear least-squares analysis and a 1:1 stoichiometry in GraphPad Prism using the equation:2 Δδ=ΔδmaxL+P+Kd−L+P+Kd^2−4PL/2P Where [L] is the concentration of the peptide, [P] is concentration of the protein, Δδ is the observed chemical shift change, and Δδ max is the normalized chemical shift change at saturation. Normalized chemical shift changes were calculated using the equation δ=ΔδH^2+(ΔδN/5)^2 (3), where Δδ is the change in chemical shift in parts per million (ppm).

Taf14ET = target: T1, Taf14ET (Saccharomyces cerevisiae, UniProt P35189); experiment: NMR 1H,15N HSQC titration (chemical shift perturbations), Taf14ET; assay type: binding; settings: 15N-labelled Taf14ET, 298 K, increasing amounts of mutated peptide
T1 construct: Taf14ET (aa 168-243); His; made in house; host or cells: Escherichia coli Rosetta-2 (DE3) pLysS
T1 sequence (P35189 168-243): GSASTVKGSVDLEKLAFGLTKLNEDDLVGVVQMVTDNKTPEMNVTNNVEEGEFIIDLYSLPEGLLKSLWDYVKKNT
Experimental: as §2

[1] = target: T2, Yng1_(EBM-PHD) (aa 100-219 of Yng1) (S. cerevisiae, UniProt Q08465 100-219); experiment: NMR titration; 1H,15N HSQC of 0.05-0.2 mM 15N-labeled Taf14 proteins, 298 K, unlabeled peptide or Yng1EBM-PHD added; Tris-HCl or PBS, pH 6.6-7.5; apparent Kd from CSPs, 1:1 stoichiometry; settings: both partners purified
T2 construct: Yng1, S. cerevisiae, UniProt Q08465, EBM coupled to the PHD finger, aa 100-219; source: E. coli Rosetta-2 (DE3) pLysS, purified
T2 sequence (looked up): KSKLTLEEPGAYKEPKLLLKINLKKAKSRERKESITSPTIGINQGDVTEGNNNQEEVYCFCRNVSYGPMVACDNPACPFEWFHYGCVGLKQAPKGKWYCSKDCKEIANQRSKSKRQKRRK

[2] = target: the molecule itself; experiment: crystal structure; Taf14ET co-crystallized with Yng1EBM peptide (molar ratio 1:2.5); 40% PEG 400, 0.1 M Tris pH 8.5, 0.2 M LiSO4; 1.9 Å
[3] = assay type: physicochemical, Saccharomyces cerevisiae
Text: The S. cerevisiae Taf14FL (aa 1-244) (UniProt code P35189), Taf14YEATS (aa 1-137), Taf14ET (aa 168-243) and Yng1EBM-PHD (aa 100-219) (UniProt code Q08465) were cloned into pGEX-6P1, pET22b or pCIOX vectors. The F220R, I222R and L224R mutants of Taf14ET were generated using QuikChange II site directed mutagenesis kit (Agilent). Sequences were confirmed by DNA sequencing. All proteins were expressed in Escherichia coli Rosetta-2 (DE3) pLysS cells grown in either Terrific Broth, Luria Broth or in minimal media supplemented with ^15NH4Cl (Sigma). Protein production was induced with 0.3 mM IPTG for 18 h at 16 °C. Bacteria were harvested by centrifugation and lysed by sonication. GST-fusion proteins were purified on glutathione agarose 4B beads (Thermo Fisher Sci). The GST-tag was cleaved with either PreScission or tobacco etch virus (TEV) protease. After cleavage, Taf14FL and Taf14YEATS retained the pGEX-6P1vector-derived residues Gly and Pro. His-fusion proteins were incubated with Ni-NTA resin (ThermoFisher), washed and eluted with a gradient of imidazole. When necessary, removal of the His-tag was completed during an overnight dialysis, while incubating the protein with ULP1 protease. […]
Nuclear magnetic resonance experiments were performed at 298 K on Varian INOVA 900 MHz (for Taf14FL) and 600 MHz (for Taf14ET and Taf14YEATS) spectrometers equipped with cryogenic probes as described. […] NMR data were processed and analyzed using NMRPipe as previously described, with the apparent Kds being determined by a nonlinear least-squares analysis and a 1:1 stoichiometry in GraphPad Prism using the equation:2 Δδ=ΔδmaxL+P+Kd−L+P+Kd^2−4PL/2P Where [L] is the concentration of the peptide, [P] is concentration of the protein, Δδ is the observed chemical shift change, and Δδ max is the normalized chemical shift change at saturation. Normalized chemical shift changes were calculated using the equation δ=ΔδH^2+(ΔδN/5)^2 (3), where Δδ is the change in chemical shift in parts per million (ppm).

Ac-EPKLLLKINLKK-NH2 [Yng1EBM]
effect of peptide on DNA binding activity of isolated Taf14ET (EMSA) (Taf14ET-601 DNA complex): increased
effect of peptide on binding of Taf14FL to 601 DNA (EMSA) (Taf14FL-601 DNA complex): enhanced
CSPs induced in 15N-labeled Taf14YEATS (Taf14YEATS): No CSPs

I118D Sas3EBM: Sas3EBM peptide with single point substitution I118D (SEELKVRDKYDS)
binding of wild type Taf14ET judged by CSPs in 1H,15N HSQC spectra (Taf14ET): abrogated binding

I120D Yng1EBM: Yng1EBM peptide with I120 replaced with aspartate (EPKLLLKDNLKK)
binding of wild type Taf14ET judged by CSPs in 1H,15N HSQC spectra (Taf14ET): almost negligible CSPs

V116D Sas3EBM: Sas3EBM peptide with single point substitution V116D (SEELKDRIKYDS)
binding of wild type Taf14ET judged by CSPs in 1H,15N HSQC spectra (Taf14ET): abrogated binding

B1: Taf14ET (extra-terminal domain of Taf14, aa 168-243) (domain or fragment, S. cerevisiae, UniProt P35189 168-243, looked up)
chain: GSASTVKGSVDLEKLAFGLTKLNEDDLVGVVQMVTDNKTPEMNVTNNVEEGEFIIDLYSLPEGLLKSLWDYVKKNT
notes: Taf14, S. cerevisiae, UniProt P35189, ET domain, aa 168-243; Uniformly 15N-labelled for NMR; also called ET domain of Taf14
binding result [1]: binds
stoichiometry N [2]: 2

B2: L224R Taf14ET: L224R mutant of Taf14ET (aa 168-243 of S. cerevisiae Taf14) (protein, UniProt P35189 168-243, looked up, variant L224R)
chain: GSASTVKGSVDLEKLAFGLTKLNEDDLVGVVQMVTDNKTPEMNVTNNVEEGEFIIDRYSLPEGLLKSLWDYVKKNT
modifications: ET domain (aa 168-243)
stability of mutated Taf14ET protein [3]: unstable

B3: I222R Taf14ET: I222R mutant of Taf14ET (aa 168-243 of S. cerevisiae Taf14) (protein, UniProt P35189 168-243, looked up, variant I222R)
chain: GSASTVKGSVDLEKLAFGLTKLNEDDLVGVVQMVTDNKTPEMNVTNNVEEGEFIRDLYSLPEGLLKSLWDYVKKNT
modifications: ET domain (aa 168-243)
stability of mutated Taf14ET protein [3]: unstable
